In patent US20220041718A1 (AUTOLUS, published 2022):

Legend:
[1] = target: T1, Recombinant purified TRBC2 (human, UniProt A0A5B9 1-129, limits assumed); experiment: SPR, IgG captured on anti-human Fc, TRBC2 as analyte
T1 construct: Construct not described (may be a soluble TCR carrying TRBC2); also called TCR beta constant region 2; soluble recombinant biotinylated TRBC2
Text: (§1) A series S CM5 sensor chip was immobilised via amine coupling, with an anti-human Fc capture antibody to a density of 9000-10000 RU, using a Biacore T200 instrument. HBS-P+ buffer was used as running buffer in all experimental conditions. The test anti-TRBC2 antibodies (Table 1) were captured on flow cells 2, 3 and 4 to a density of 100-300 RU. Recombinant purified TRBC1 or TRBC2 at known concentrations were used as the ‘analyte’ and injected over the respective flow cells with 150s contact time and 300s dissociation at 30 μl/minute of flow rate. In each experiment, flow cell 1 was unmodified and used for reference subtraction. A ‘0 concentration’ sensorgram of buffer alone was used as a double reference subtraction to factor for drift. Data were fit to a 1:1 Langmuir binding model. Since a capture system was used, a local Rₘₐₓ parameter was used for the data fitting in each case.

[2] = target: T2, Recombinant purified TRBC1 (human, UniProt P01850 1-129, limits assumed); experiment: SPR, IgG captured on anti-human Fc, TRBC1 as analyte
T2 construct: Construct not described (may be a soluble TCR carrying TRBC1); also called TCR beta constant region 1; soluble recombinant biotinylated TRBC1
T2 sequence (P01850 1-129 limits assumed): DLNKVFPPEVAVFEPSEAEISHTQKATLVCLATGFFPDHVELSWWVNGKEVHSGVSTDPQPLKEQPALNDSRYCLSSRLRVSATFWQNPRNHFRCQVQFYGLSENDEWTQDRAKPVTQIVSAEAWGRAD
Text: as §1

T1 sequence (A0A5B9 1-129 limits assumed): as the sequence (P01850 1-129 limits assumed) above, with N3K, K4N, E9K, F36Y counted along it

Binder	Kd [1]	Kd [2]
hJovi-1 variant IgG, VH T28K, Y32F, A100N; VL unmutated (antibody, V domains shown, IgG format; also called anti-TRBC2 triple mutant) VH: QVQLVQSGAEVKKPGASVKVSCKASGYKFTGFVMHWVRQAPGQGLEWMGFINPYNDDIQSNERFRGRVTMTRDTSISTAYMELSRLRSDDTAVYYCARGNGYNFDGAYRFFDFWGQGTMVTVSS VL: DIVMTQSPLSLPVTPGEPASISCRSSQRLVHSNGNTYLHWYLQKPGQSPRLLIYRVSNRFPGVPDRFSGSGSGTDFTLKISRVEAEDVGVYYCSQSTHVPYTFGQGTKLEIK	432 nM	2730 nM
hJovi-1 variant IgG, VH G31S, T28K, Y32F, A100N; VL unmutated (antibody, V domains shown, IgG format) VH: QVQLVQSGAEVKKPGASVKVSCKASGYKFTSFVMHWVRQAPGQGLEWMGFINPYNDDIQSNERFRGRVTMTRDTSISTAYMELSRLRSDDTAVYYCARGNGYNFDGAYRFFDFWGQGTMVTVSS VL: DIVMTQSPLSLPVTPGEPASISCRSSQRLVHSNGNTYLHWYLQKPGQSPRLLIYRVSNRFPGVPDRFSGSGSGTDFTLKISRVEAEDVGVYYCSQSTHVPYTFGQGTKLEIK	1170 nM	3680 nM
hJovi-1 variant IgG, VH N103F, T28K, Y32F, A100N; VL N35F (antibody, V domains shown, IgG format) VH: QVQLVQSGAEVKKPGASVKVSCKASGYKFTGFVMHWVRQAPGQGLEWMGFINPYNDDIQSNERFRGRVTMTRDTSISTAYMELSRLRSDDTAVYYCARGNGYFFDGAYRFFDFWGQGTMVTVSS VL: DIVMTQSPLSLPVTPGEPASISCRSSQRLVHSNGFTYLHWYLQKPGQSPRLLIYRVSNRFPGVPDRFSGSGSGTDFTLKISRVEAEDVGVYYCSQSTHVPYTFGQGTKLEIK	459 nM	1610 nM
hJovi-1 variant IgG, VH G31R, Y32F, A100N; VL unmutated (antibody, V domains shown, IgG format) VH: QVQLVQSGAEVKKPGASVKVSCKASGYTFTRFVMHWVRQAPGQGLEWMGFINPYNDDIQSNERFRGRVTMTRDTSISTAYMELSRLRSDDTAVYYCARGNGYNFDGAYRFFDFWGQGTMVTVSS VL: DIVMTQSPLSLPVTPGEPASISCRSSQRLVHSNGNTYLHWYLQKPGQSPRLLIYRVSNRFPGVPDRFSGSGSGTDFTLKISRVEAEDVGVYYCSQSTHVPYTFGQGTKLEIK	1360 nM	3140 nM
hJovi-1 variant IgG, VH N103F, T28K, Y32F, A100N; VL N35Y (antibody, V domains shown, IgG format) VH: QVQLVQSGAEVKKPGASVKVSCKASGYKFTGFVMHWVRQAPGQGLEWMGFINPYNDDIQSNERFRGRVTMTRDTSISTAYMELSRLRSDDTAVYYCARGNGYFFDGAYRFFDFWGQGTMVTVSS VL: DIVMTQSPLSLPVTPGEPASISCRSSQRLVHSNGYTYLHWYLQKPGQSPRLLIYRVSNRFPGVPDRFSGSGSGTDFTLKISRVEAEDVGVYYCSQSTHVPYTFGQGTKLEIK	501 nM	1860 nM
hJovi-1 variant IgG, VH N103E, T28K, Y32F, A100N; VL N35M (antibody, V domains shown, IgG format) VH: QVQLVQSGAEVKKPGASVKVSCKASGYKFTGFVMHWVRQAPGQGLEWMGFINPYNDDIQSNERFRGRVTMTRDTSISTAYMELSRLRSDDTAVYYCARGNGYEFDGAYRFFDFWGQGTMVTVSS VL: DIVMTQSPLSLPVTPGEPASISCRSSQRLVHSNGMTYLHWYLQKPGQSPRLLIYRVSNRFPGVPDRFSGSGSGTDFTLKISRVEAEDVGVYYCSQSTHVPYTFGQGTKLEIK	2130 nM	5830 nM

These reach a lower Kd [1]. Values come first.

Kd [1]	Kd [2]	Binder
130 nM	459 nM	hJovi-1 variant IgG, VH N103F, T28K, Y32F, A100N; VL N35M (antibody, V domains shown, IgG format) VH: QVQLVQSGAEVKKPGASVKVSCKASGYKFTGFVMHWVRQAPGQGLEWMGFINPYNDDIQSNERFRGRVTMTRDTSISTAYMELSRLRSDDTAVYYCARGNGYFFDGAYRFFDFWGQGTMVTVSS VL: DIVMTQSPLSLPVTPGEPASISCRSSQRLVHSNGMTYLHWYLQKPGQSPRLLIYRVSNRFPGVPDRFSGSGSGTDFTLKISRVEAEDVGVYYCSQSTHVPYTFGQGTKLEIK
369 nM	1380 nM	hJovi-1 variant IgG, VH N103L, T28K, Y32F, A100N; VL N35F (antibody, V domains shown, IgG format) VH: QVQLVQSGAEVKKPGASVKVSCKASGYKFTGFVMHWVRQAPGQGLEWMGFINPYNDDIQSNERFRGRVTMTRDTSISTAYMELSRLRSDDTAVYYCARGNGYLFDGAYRFFDFWGQGTMVTVSS VL: DIVMTQSPLSLPVTPGEPASISCRSSQRLVHSNGFTYLHWYLQKPGQSPRLLIYRVSNRFPGVPDRFSGSGSGTDFTLKISRVEAEDVGVYYCSQSTHVPYTFGQGTKLEIK
